Data from the nanobody polyreactivity screen of Harvey et al. (2022).

Experiment: yeast display, Sf9 membrane polyspecificity reagent, FACS + sequencing; frameworks hold sequencing errors
Method in brief: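 Nanobodies from a synthetic yeast display library (Saccharomyces cerevisiae BJ5465), induced 36–48 hours with galactose, were stained 1 hour at 4 °C with 10% biotinylated, detergent-solubilized Sf9 membrane reagent, enriched on streptavidin microbeads, then FACS-sorted. Anti-HA (expression) and streptavidin (reagent binding) fluorescence set low and high (top ~1%) gates. Polyreactivity labels come from the gate of origin. Genes were colony-PCR amplified, MiSeq 2 × 250 sequenced and filtered by CDR length.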

Sequence | polyreactivity (PSR sort gate)
QVQLVESGGGLVQAGGSLRLSCAASGSIYYYVMGWYRQAPGKERELVAAISRSTGRTYYADSVKGRFTISRDNAKNTVYLQMNSLKPEDTAVYYCNKVVPHKPPTMDYWGQGTQVTVSS | high polyreactivity
QVQLVESGGGLVQAGGSLRLSCAASGSIYYYYAMGWYRQAPGKERELVAAIRRRGGTTYYADSVKGRFTISRDNAKNTVSLQMISLKPEDTAVYYCAARSKSAYWGQGTQVTVSS | high polyreactivity
QVQLVESGGGLVQAGGSLRLSCAASGSLFERYAMGWNRQAPGKEREFVATITSGGGRTYYADSVKGRFTISRDNAKNTVYLQMNSLKPEDTAVYYCNAVYRARSYDYWGQGTQVTVSS | high polyreactivity
QVQLVESGGGLVQAGGSLRLSCAASGSLFGRYTMGWYRQATGKDREFVAAIDRVGITNYADSVKGRFTISRDNAKNTVYLQMNSLKPEDTAVYYCAADYGAIRPRDFIEVPGHYDYWGQGTQVTVSS | low polyreactivity
QVQLVESGGGLVQAGGSLRLSCAASGSLFGYNAIGRYRQARGKERELVAAITGSGGSTYYADSVKGRFTLSRDNAKNTVYFQMNSLKPEDTAVYYCADDLFGGPLGYWDYDYWGQGTQVTVSS | low polyreactivity
QVQLVESGGGLVQAGGSLRLSCAASGSLFNLYAMGWYIQAPGKERELVAAISWSGGRTFYADSVKGRFTISRDNAKNTVFLQMNSLKPEDTAVYDCAARSSRTTRQGYDYWGQGTQVNVSS | high polyreactivity
QVQLVESGGGLVQAGGSLRLSCAASGSLFRYYAMGWYRQAPGTERELVAAITGRGGSTYYADSVKGRFTISRDNAKNTVYLQMNSLKPEDTAVYYCADYIDANVHRFDYWGQGTQVTVSS | low polyreactivity
QVQLVESGGGLVQAGGSLRLSCAASGSLFSTYAMGWYRPAPGKERELVAAIPTSGGRTYYADSVKGRFTISRDNAKNTVYLQMNSLKPEDTAVYDCNAVRGGRYGLDYWGQGTQVTVSS | high polyreactivity
QVQLVESGGGLVQAGGSLRLSCAASGSMFVVYAMGWYRQGPGKERELVAAISWGIGSTYYADSVKGRFTISRDNAKNTVYLQMNSLKPEDTADYYCAADTDIVLYDYWGQGTQVTVSS | low polyreactivity
QVQLVESGGGLVQAGGSLRLSCAASGSMFYYYAMGWYRQAPGKERELVAAISSAGITNYADSVKGRFTISRDNAKNTVYLQMNSLKPEDTAVSYCAAAVFDIYWFLGEAYYFQYDYWGQGTQVTVSS | high polyreactivity
QVQLVESGGGLVQAGGSLRLSCAASGSNFAYNAMGWYRQAPGKERELVAGITTSGSRTYYADSVKGRFTISRDNAKNTVYLQMNSLKPEDTAVYYCAADPYFYPIYDYWGQGTQVTVSS | low polyreactivity
QVQLVESGGGLVQAGGSLRLSCAASGSNFEYYTMGWYRQAPGKEREFVAAITFTGDSTYYADSVKGRFTSSRDNAKNTVYLQMNSLTPEDTAVYYCNDDSDTYDGEYDYWGQGTQVTVSS | low polyreactivity
QVQLVESGGGLVQAGGSLRLSCAASGSNFGYNALGWYRQAPGKDRELVAAITGSGGSTYYADSVKGRFTISRDNAKNTVYLQMNSLKPEDTAVYYCAHDLFGGPLGYWDYDYWGQGTQVTVSS | low polyreactivity
QVQLVESGGGLVQAGGSLRLSCAASGSNFLYNAMGWYRQAPGKERELVAAITQGGGSTYYADSVKGRFTISLDIAKNTVYLQMISLKPEDTAVYYCNKASFYDAHRLDYWGQGTQVTVSS | high polyreactivity
QVQLVESGGGLVQAGGSLRLSCAASGSNFPGYAMGWYRQAPGKERELVAAISTSGGSTYADSVKGRFTISRDNAKNTVYLQMNSLKPEDTAVYYCAATYTYTSPVYYSLDGPWPYDYWGQGTQVTVSS | low polyreactivity
QVQLVESGGGLVQAGGSLRLSCAASGSNFPLNPMGWYRPSPGKERELVAAISSSTGSTSYADSVKGRFTISRDNAKNTVYLQMNSLKPEDTAVYYCAAETPYIVDYWGQGTQVTVSS | high polyreactivity
QVQLVESGGGLVQAGGSLRLSCAASGSNFQNYAMGLYIQAPGKERELVAAISSSGTGTSYADSVKGRFTISRDNAKNTVYLQMNSLKPEDTAVYYCAADYLDYADSAYYYWGQCTQVTVSS | low polyreactivity
